Measurements as given in the Human Domainome abundance scans (Beltran et al. 2025).
± gives the uncertainty stated by the source.

B1: Receptor-interacting serine/threonine-protein kinase 2, residues 438 to 518; numbered along this chain, O43353 (parent)
chain: QWIQSKREDIVNQMTEACLNQSLDALLSRDLIMKEDYELVSTKPTRTSKVRQLLDTTDIQGEEFAKVIVQKLKDNKQMGLQ

Variants of: B1
Assay: abundance fitness (aPCA) (normalised: wild type 0, dead -1); higher = more abundant; growth selection in yeast, the domain comes from the species named
Conditions: Homo sapiens
QWIQSKREDIVNQMTEACLNQSLDALLSRDLIMKEDYELVSTKPTRTSKVRQLLDTTDIQGEEFAKVLVQKLKDNKQMGLQ [I68L] showed an abundance fitness of -0.413 ± 0.077.
Variant QWIQSKREDIVNQMTEACLNQSLDALLSRDLIMKEDYELVSTKPTRTSKVRQLLDTTDIQGEEFAKVMVQKLKDNKQMGLQ [I68M] has an abundance fitness of -0.201 ± 0.14.
For QWIQSKREDIVNQMTEACLNQSLDALLSRDLIMKEDYELVSTKPTRTSKVRQLLDTTDIQGEEFAKVNVQKLKDNKQMGLQ [I68N], the abundance fitness was -0.459 ± 0.26.
Variant QWIQSKREDIVNQMTEACLNQSLDALLSRDLIMKEDYELVSTKPTRTSKVRQLLDTTDIQGEEFAKVPVQKLKDNKQMGLQ [I68P] has an abundance fitness of -0.462 ± 0.07.
In the case of QWIQSKREDIVNQMTEACLNQSLDALLSRDLIMKEDYELVSTKPTRTSKVRQLLDTTDIQGEEFAKVQVQKLKDNKQMGLQ [I68Q], the abundance fitness is reported as -0.554 ± 0.12.
QWIQSKREDIVNQMTEACLNQSLDALLSRDLIMKEDYELVSTKPTRTSKVRQLLDTTDIQGEEFAKVRVQKLKDNKQMGLQ [I68R] gave an abundance fitness of -0.695 ± 0.07.
For QWIQSKREDIVNQMTEACLNQSLDALLSRDLIMKEDYELVSTKPTRTSKVRQLLDTTDIQGEEFAKVSVQKLKDNKQMGLQ [I68S], the abundance fitness was -0.491 ± 0.073.
For QWIQSKREDIVNQMTEACLNQSLDALLSRDLIMKEDYELVSTKPTRTSKVRQLLDTTDIQGEEFAKVTVQKLKDNKQMGLQ [I68T], the abundance fitness was -0.345 ± 0.095.
Work on QWIQSKREDIVNQMTEACLNQSLDALLSRDLIMKEDYELVSTKPTRTSKVRQLLDTTDIQGEEFAKVVVQKLKDNKQMGLQ [I68V] yielded an abundance fitness of -0.147 ± 0.091.
QWIQSKREDIVNQMTEACLNQSLDALLSRDLIMKEDYELVSTKPTRTSKVRQLLDTTDIQGEEFAKVWVQKLKDNKQMGLQ [I68W] gave an abundance fitness of -0.958 ± 0.16.
Work on QWIQSKREDIVNQMTEACLNQSLDALLSRDLIMKEDYELVSTKPTRTSKVRQLLDTTDIQGEEFAKVYVQKLKDNKQMGLQ [I68Y] yielded an abundance fitness of -0.568 ± 0.24.
For QWIQSKREDIVNQMTEACLNQSLDALLSRDLIMKEDYELVSTKPTRTSKVRQLLDTTDIQGEEFAKVIAQKLKDNKQMGLQ [V69A], the abundance fitness was -0.384 ± 0.097.
Variant QWIQSKREDIVNQMTEACLNQSLDALLSRDLIMKEDYELVSTKPTRTSKVRQLLDTTDIQGEEFAKVICQKLKDNKQMGLQ [V69C] has an abundance fitness of -0.159 ± 0.11.
In the case of QWIQSKREDIVNQMTEACLNQSLDALLSRDLIMKEDYELVSTKPTRTSKVRQLLDTTDIQGEEFAKVIDQKLKDNKQMGLQ [V69D], the abundance fitness is reported as -0.27 ± 0.2.
For QWIQSKREDIVNQMTEACLNQSLDALLSRDLIMKEDYELVSTKPTRTSKVRQLLDTTDIQGEEFAKVIEQKLKDNKQMGLQ [V69E], the abundance fitness was -0.178 ± 0.12.
With QWIQSKREDIVNQMTEACLNQSLDALLSRDLIMKEDYELVSTKPTRTSKVRQLLDTTDIQGEEFAKVIFQKLKDNKQMGLQ [V69F] the abundance fitness was -0.057 ± 0.13.
QWIQSKREDIVNQMTEACLNQSLDALLSRDLIMKEDYELVSTKPTRTSKVRQLLDTTDIQGEEFAKVIGQKLKDNKQMGLQ [V69G] showed an abundance fitness of -0.553 ± 0.086.
QWIQSKREDIVNQMTEACLNQSLDALLSRDLIMKEDYELVSTKPTRTSKVRQLLDTTDIQGEEFAKVIHQKLKDNKQMGLQ [V69H] showed an abundance fitness of -0.508 ± 0.25.
Variant QWIQSKREDIVNQMTEACLNQSLDALLSRDLIMKEDYELVSTKPTRTSKVRQLLDTTDIQGEEFAKVIIQKLKDNKQMGLQ [V69I] has an abundance fitness of -0.051 ± 0.16.
With QWIQSKREDIVNQMTEACLNQSLDALLSRDLIMKEDYELVSTKPTRTSKVRQLLDTTDIQGEEFAKVIKQKLKDNKQMGLQ [V69K] the abundance fitness was -0.35 ± 0.13.
With QWIQSKREDIVNQMTEACLNQSLDALLSRDLIMKEDYELVSTKPTRTSKVRQLLDTTDIQGEEFAKVILQKLKDNKQMGLQ [V69L] the abundance fitness was -0.286 ± 0.093.
Variant QWIQSKREDIVNQMTEACLNQSLDALLSRDLIMKEDYELVSTKPTRTSKVRQLLDTTDIQGEEFAKVIMQKLKDNKQMGLQ [V69M] has an abundance fitness of 0.003 ± 0.11.
In the case of QWIQSKREDIVNQMTEACLNQSLDALLSRDLIMKEDYELVSTKPTRTSKVRQLLDTTDIQGEEFAKVINQKLKDNKQMGLQ [V69N], the abundance fitness is reported as -0.94 ± 0.35.
Work on QWIQSKREDIVNQMTEACLNQSLDALLSRDLIMKEDYELVSTKPTRTSKVRQLLDTTDIQGEEFAKVIQQKLKDNKQMGLQ [V69Q] yielded an abundance fitness of -0.306 ± 0.085.
Work on QWIQSKREDIVNQMTEACLNQSLDALLSRDLIMKEDYELVSTKPTRTSKVRQLLDTTDIQGEEFAKVISQKLKDNKQMGLQ [V69S] yielded an abundance fitness of -0.57 ± 0.094.
QWIQSKREDIVNQMTEACLNQSLDALLSRDLIMKEDYELVSTKPTRTSKVRQLLDTTDIQGEEFAKVIWQKLKDNKQMGLQ [V69W] showed an abundance fitness of -0.4 ± 0.067.
Variant QWIQSKREDIVNQMTEACLNQSLDALLSRDLIMKEDYELVSTKPTRTSKVRQLLDTTDIQGEEFAKVIYQKLKDNKQMGLQ [V69Y] has an abundance fitness of -0.23 ± 0.17.
Work on QWIQSKREDIVNQMTEACLNQSLDALLSRDLIMKEDYELVSTKPTRTSKVRQLLDTTDIQGEEFAKVIVAKLKDNKQMGLQ [Q70A] yielded an abundance fitness of -0.072 ± 0.058.
In the case of QWIQSKREDIVNQMTEACLNQSLDALLSRDLIMKEDYELVSTKPTRTSKVRQLLDTTDIQGEEFAKVIVDKLKDNKQMGLQ [Q70D], the abundance fitness is reported as -0.206 ± 0.3.
In the case of QWIQSKREDIVNQMTEACLNQSLDALLSRDLIMKEDYELVSTKPTRTSKVRQLLDTTDIQGEEFAKVIVEKLKDNKQMGLQ [Q70E], the abundance fitness is reported as 0.08 ± 0.15.
QWIQSKREDIVNQMTEACLNQSLDALLSRDLIMKEDYELVSTKPTRTSKVRQLLDTTDIQGEEFAKVIVGKLKDNKQMGLQ [Q70G] gave an abundance fitness of -0.144 ± 0.065.
With QWIQSKREDIVNQMTEACLNQSLDALLSRDLIMKEDYELVSTKPTRTSKVRQLLDTTDIQGEEFAKVIVHKLKDNKQMGLQ [Q70H] the abundance fitness was -0.351 ± 0.3.
For QWIQSKREDIVNQMTEACLNQSLDALLSRDLIMKEDYELVSTKPTRTSKVRQLLDTTDIQGEEFAKVIVIKLKDNKQMGLQ [Q70I], the abundance fitness was -0.614 ± 0.42.
Work on QWIQSKREDIVNQMTEACLNQSLDALLSRDLIMKEDYELVSTKPTRTSKVRQLLDTTDIQGEEFAKVIVLKLKDNKQMGLQ [Q70L] yielded an abundance fitness of -0.687 ± 0.11.
